In patent US20210332120A1:

Molecular target: human IL-17A (human) (UniProt Q16552)
Assay: cell-based or functional assay

Chain of human IL-17A (human) (Q16552 20-155 limits assumed): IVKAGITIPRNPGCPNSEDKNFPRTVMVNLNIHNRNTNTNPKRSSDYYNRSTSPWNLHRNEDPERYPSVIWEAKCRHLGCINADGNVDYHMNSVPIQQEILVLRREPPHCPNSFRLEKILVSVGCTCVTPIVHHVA

Q: “BCD-085 anti-IL-17A monospecific antibody (BIOCAD)” was tested. Which IC50, IL-17A-dependent IL-6 production, HT1080 cells did it give?
A: Its IC50, IL-17A-dependent IL-6 production, HT1080 cells is 9.2 ng/mL.

Q: And the IC50, dual IL-17A/TNFα-dependent IL-6 production, HT1080 cells?
A: Its IC50, dual IL-17A/TNFα-dependent IL-6 production, HT1080 cells is 0.025 nM.
